From patent publication US20230203197A1 (UNIVERSITE DE TOUR, published 2023)
Like-named read-outs stand apart in the source and are kept apart here. Each block holds one binder with its values, some of them ahead of it.

Columns and labels:
[1] = molecular target: T1, neutrophil proteinase 3 (PR3), purified native human PR3 (human, UniProt P24158 28-248); test: BIACORE (SPR)
T1 construct: Also used in denatured form in western blot and as the antigen of the EuroImmun anti-PR3 kit; also called native PR3
T1 sequence: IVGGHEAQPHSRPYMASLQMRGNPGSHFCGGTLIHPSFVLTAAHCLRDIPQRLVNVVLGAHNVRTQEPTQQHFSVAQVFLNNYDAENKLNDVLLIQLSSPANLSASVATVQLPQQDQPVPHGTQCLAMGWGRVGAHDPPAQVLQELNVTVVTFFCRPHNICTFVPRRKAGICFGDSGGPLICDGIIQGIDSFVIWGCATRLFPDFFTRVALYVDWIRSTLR

BSA = molecular target: T2, BSA (bovine, UniProt P02769); test: ELISA, compared with coated PR3
T2 construct: in the ELISA well; also called Bovine Serum Albumin

OVA [2] = molecular target: T3, OVA; test: specificity ELISA on different coated antigens (n=5)
T3 construct: One of the antigens of group m15; also called ovalbumin
T3 chain: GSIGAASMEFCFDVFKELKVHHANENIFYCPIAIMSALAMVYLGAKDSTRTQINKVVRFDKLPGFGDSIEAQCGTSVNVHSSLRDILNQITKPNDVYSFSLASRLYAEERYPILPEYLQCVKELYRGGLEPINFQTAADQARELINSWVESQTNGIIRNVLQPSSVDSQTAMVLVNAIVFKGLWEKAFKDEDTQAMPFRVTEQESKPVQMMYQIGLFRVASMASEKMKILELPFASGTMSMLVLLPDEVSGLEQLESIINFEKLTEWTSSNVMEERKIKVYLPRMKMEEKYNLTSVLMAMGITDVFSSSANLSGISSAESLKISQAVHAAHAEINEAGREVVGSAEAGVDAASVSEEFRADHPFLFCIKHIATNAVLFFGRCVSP

Cathepsin G (Cath G) = molecular target: T4, Cathepsin G (Cath G) (UniProt P08311 21-244); test: western blot, 4C3 as the primary antibody
T4 sequence (looked up): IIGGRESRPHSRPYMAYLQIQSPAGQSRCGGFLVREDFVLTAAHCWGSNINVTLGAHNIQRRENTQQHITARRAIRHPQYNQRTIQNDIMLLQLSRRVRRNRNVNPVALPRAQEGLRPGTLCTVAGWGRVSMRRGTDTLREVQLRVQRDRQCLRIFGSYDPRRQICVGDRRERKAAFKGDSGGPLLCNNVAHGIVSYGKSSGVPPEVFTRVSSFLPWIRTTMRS
From the text: (§1) To confirm anti-PR3 specificity, 4C3 was used as a primary antibody in western blot (FIGS. 8A and 8B) on protein lysates from neutrophils, HeLa cells (ATCC® CCL-2™) and human PR3.

Elastase = molecular target: T5, Elastase (UniProt P08246 30-247, limits assumed); test: western blot, 4C3 as the primary antibody
T5 sequence (looked up): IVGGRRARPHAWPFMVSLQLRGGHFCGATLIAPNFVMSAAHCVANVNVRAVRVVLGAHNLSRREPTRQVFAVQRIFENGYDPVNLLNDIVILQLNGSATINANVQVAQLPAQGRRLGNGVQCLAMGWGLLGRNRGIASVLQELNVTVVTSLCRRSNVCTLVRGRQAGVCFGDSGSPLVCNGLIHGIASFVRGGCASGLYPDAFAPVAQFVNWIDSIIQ
From the text: as §1

[3] = molecular target: T6, peptide 4C3_3.2 of PR3, biotinylated (human, biotinylated (position not given)); test: HTRF: anti-Fab antibody coupled to d2 on 4C3, terbium-streptavidin on the biotinylated peptide; ratio, baseline-corrected
T6 construct: also called peptide 3.2
Method: The identification of the epitope recognised by the 4C3 antibody was carried out by MabSilico. The first step enabled the PR3 epitope to be modelled using the MabTope method, which consists of the computer prediction of an ordered list of PR3 peptides likely to belong to the epitope from the sequence of the variable part (VH and VL) of 4C3 (FIGS. 4B and 4C). The second step allowed the experimental measurement of the specific binding of a number of these peptides to the antibody. This measurement was made by HTRF (Homogeneous Time Resolved Fluorescence) between an anti-Fab d2-coupled antibody (CisBio™) which binds to the antibody of interest, and a terbium-coupled streptavidin (CisBio™) which binds to the biotinylated peptide (FIG. 4D).

[4] = molecular target: T1, neutrophil proteinase 3 (PR3), purified …; test: BIACORE (SPR); remark: listed apart in the source
OVA [5] = molecular target: T3, OVA; test: ELISA, compared with coated PR3

T2 sequence (P02769 25-607 limits assumed): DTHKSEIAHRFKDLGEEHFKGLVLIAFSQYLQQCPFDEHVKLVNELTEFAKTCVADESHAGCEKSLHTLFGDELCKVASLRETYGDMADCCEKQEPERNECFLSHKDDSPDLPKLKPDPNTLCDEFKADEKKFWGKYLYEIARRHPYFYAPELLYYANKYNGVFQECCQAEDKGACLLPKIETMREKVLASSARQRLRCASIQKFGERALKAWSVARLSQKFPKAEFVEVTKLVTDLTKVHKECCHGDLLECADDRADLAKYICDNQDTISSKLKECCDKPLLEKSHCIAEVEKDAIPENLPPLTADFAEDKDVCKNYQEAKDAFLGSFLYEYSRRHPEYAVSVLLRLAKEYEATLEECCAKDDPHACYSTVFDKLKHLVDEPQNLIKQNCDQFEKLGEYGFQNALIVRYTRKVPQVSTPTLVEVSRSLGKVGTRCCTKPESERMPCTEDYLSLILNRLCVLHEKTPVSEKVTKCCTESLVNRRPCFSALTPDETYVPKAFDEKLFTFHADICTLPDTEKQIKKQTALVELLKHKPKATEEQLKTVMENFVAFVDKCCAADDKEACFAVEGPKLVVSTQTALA

Kd [1]: 0.741 nM
koff [1]: 0.00936 s⁻¹
kon [1]: 1.26e+07 M⁻¹ s⁻¹
binding result (BSA): no binding
binding result (OVA [2]): no binding
binding result (Cathepsin G (Cath G)): no binding (tested: 5 µg per lane)
binding result (Elastase): no binding (tested: 5 µg per lane)
binding result [3]: binds
B1: human monoclonal anti-proteinase 3 (PR3) 4C3 antibody, G1m3-1 allotype (antibody, human IgG1, kappa)
heavy: not shown
light: DIQMTQSPPTLSASVGDRVTITCRASQSISDWLAWYQQKPGKPPQLLIYKASSLESGVPSRFSGTGSGAEFTLTISSLQPDDSATYYCQQYNSYSNTFGQGTKLEIKRTVAAPSVFIFPPSDEQLKSGTASVVCLLNNFYPREAKVQWKVDNALQSGNSQESVTEQDSKDSTYSLSSTLTLSKADYEKHKVYACEVTHQGLSSPVTKSFNRGEC
notes: also called MAb 4C3; AcMo 4C3

Kd [4]: 0.684 nM
koff [4]: 0.00936 s⁻¹
kon [4]: 1.37e+07 M⁻¹ s⁻¹
binding result (BSA): no binding
B2: recombinant 4C3 antibody (r4C3), G1m17-1 allotype (antibody, human IgG1, kappa)
heavy: not shown
light: B1 light
notes: Produced in HEK-293 cells; differs from 4C3 only by R>K at position 224 of the heavy chain constant region
binding result (OVA [5]): no binding (tested: 1 µg/ml (coating of Ova))
